Data as given in patent US20250179155A1 (VANDERBILT UNIVERSITY, published 2025).
Substitutions are numbered along the chain they refer to.

B1: A1C11 (VHH)
VHH: QVQLQESGGGLVQAGDSLRLSCAASGRTFSRYAMGWFRQAPGKEREFVAAISWSGGTTYYADSVKGRFTISRDNAKNTVYLQMNSLKPEDTAVYYCAAGLFRGDLTRFKLDEYDYRGQGTQVTVSS
B2: A1D8 (VHH)
VHH: B1 VHH with D16G, A23V, R27G, M34L, W53Y, G56A, Y80F, L100F, R107K
B3: A2C2 (VHH)
VHH: B1 VHH with A14T, D16G, A23T, P41S, W53Y, A61S, N77S, Y80S, K109T
B4: A2F12 (VHH)
VHH: B1 VHH with D16G, G56D, Y60D, I70V, R107K, K109E
B5: A1G6 (VHH)
VHH: QVQLQESGGGLVQPGGSLRLSCAASGRAFSSYAMGWFRQTPGKEREFVAVISWSGGSTYYADSVKGRFTISRDNTKNMVYLQMMSLKPEDTAVYYCAADFSQPLLATVPDDYDYWGQGTQVTVSS
B6: A1H5 (VHH)
VHH: QVQLQESGGGLVQPGGSLRLSCAASGSIFSINAMGWYRQAPGKQRELVASITSGGSTNYADSVKGRFTISRDGAKNTVYLQMNSLKPEDTAVYYCHVPWTDDFGWAVKDYWGQGTQVTVSS
B7: A2H4 (VHH)
VHH: B6 VHH with S50K, S56T, H96N, V97L, D101S, F103L
B8: A2B5 (VHH)
VHH: QVQLQESGGGLVQAGGSLRLSCTPSERTFSAYTMAWYRQPPGKEREFAAGIKWSGSGGITLYADSVKGRFTISGDNAKSTVYLEMNSLKPEDTAVYYCTAGPTVYNPHYWGQGTQVTVSS
B9: A1C4 (VHH)
VHH: QVQLQESGGGLVQPGGSLRLSCAASGRSFSINTMGWYRQAPGNKRDMVATITTGGNTNYADSVKGRFTISRDNAKNTVYLQMNSLKPEDTAVYYCRTVVVTPYPDEFEYDYWGQGTQVTVSS
B10: A2A6 (VHH)
VHH: QVQLQESGGGLVQAGGSLRLSCADSGRTFSRYEMGWSRQAPGKEREFVAVINRLGRSTYYADSVKGRFTISRDNAKNTVYLQMNSLKPEDTAVYYCAAGVRLNLPQIPDVIDFWGQGTQVTVSS
B11: A2H9 (VHH)
VHH: QVQLQESGGGLVQAGGSLRLSCAASGRASSTYVMAWFRQAPGKEREFVAADTWGGAGTYYAPSVKGRFTISRDNAKNMLYLQMNSLKPEDTAAYYCAAGQGRSVTLFQPSTYDYWGQGTQVTVSS
B12: A1G4 (VHH)
VHH: QVQLQESGGGLVQAGGSLRLSCAVSGRTLNSYAMGWFRQALGKEREFVAGISRAGGMTRYTDSVKGRFTISRDDAKNTVYLQMNSLKPDDTAVYSCAASFALVDSAGAYDYWGQGTQVTVSS
B13: A2G5 (VHH)
VHH: B12 VHH with N30S, A54G, F100Y, V103I, S105M, A106S, G107S
B14: A1D1 (VHH)
VHH: QVQLQESGGGLVQAGGSLRLSCAASGRTFSTHTMAWFRQAPGKEREFVTGIRWSDGMTIYADSVKGRFTISRDKATNTMYLEMNTLKPDDTAVYYCGAGPTMYHPTYWGQGTQVTVSS
B15: A2F10 (VHH)
VHH: QVQLQESGGGLVQPGGSLRLSCAASGRSFSSGAMGWFRQAPGKEREFVGVGWSGGLIDYAASVRGRFTITRDKAKNTVYLRMDSLRPEDTAVYYCAINSANSCAGYDCHDKPQVYDYWGQGTQVTVSS
B16: A2B10 (VHH)
VHH: QVQLQESGGGTVQPGGSLRLSCAASGRDFSSGAMGWFRQTPGNEREFVGVGWSGGLIDYSDSVKGRFTITRDKLKNEVYLRMDRLKPEDTAVYFCAVNSANSCAGYDCHDKPQTYNYWGQGTQVTVSS
B17: A1C1 (VHH)
VHH: QVQLQESGGGLVQAGGSLRLSCAASGGTFSSYSVGWFRQAPGLEREFVGMITWRGITYFEDFVKDRFNISRDNAKNTVYLQMNSLKPEDTAVYSCAARDRRAARIQEFDYWGQGTQVTVSS
B18: A1H1 (VHH)
VHH: QVQLQESGGGLVQAGGSLRLSCAASGGTFSKTSVGWFRQAPGLEREFVALITWSGNTYFVDSVRERFAISRDNAENTVYLQMNSLEPEDTAVYYCAARERTAARIQEFDYWGQGTQVTVSS
B19: A2A8 (VHH)
VHH: QVQLQESGGGLVQAGDSLRLSCTASGGTFSSYSIGWFRQAPGLEREFVALITWRNNTYLGDSVRERFAISRDNAKNTVYLQMNSLKPEDTAVYSCAARERRVARIQEFDYWGQGTQVTVSS
B20: B1C10 (VHH)
VHH: QVQLQESGGGLVQPGGSLRLSCLASGLSLSTDVMSWFRQAPGKERELVAGIRSAGWITNYADSVKGRFTISVDSAKNTVYLQMNSLKPEDTAVYYCKVLRLPDGLAFWGQGTQVTVSS
B21: B1E7 (VHH)
VHH: QVQLQESGGGLVQPGGSLRLSCAASGSLRSGYVMSWHRQAPGKQRELVASITTGDITQYGASVKGRFTISRDETKNMGWLQMNSLLPEDTAVYYCKITELPTVSVYWGQGTQVTVSS
B22: B0D11 (VHH)
VHH: QVQLQESGGGLAQPGGSLRLSCAASGFTFSHAVMSWFRQAPGKERELVAGWRSAGGITNYADSVKGRFTISGDNAKDVVYLQMNSLKPEDTAVYYCKAFVVGSAYWGQGTQVTVSS
B23: B0B11 (VHH)
VHH: QVQLQESGGGLVQPGGSLRLSCATSGFYFPNYAMSWHRQAPGQERELVARITSAGGSTDYADSVKGRFTISRDNSKNTVYLQMNGLISEDTAVYYCNADPSYGTRYWGQGTQVTVSS
B24: B0B7 (VHH)
VHH: QVQLQESGGGSVQPGGSLRLSCAASGSIYGMMMMAWYRQRTGEQRELVANFTRDGSTNYVDSVKGRFTISRDNDKKMVYLQMKDLKPEDTAVYYCNIQRYWGKGTAVTVSS
B25: B2C5 (VHH)
VHH: QVQLQESGGGLVQPGGSLRLSCAASGLTSGTYVMSWFRQAPGKEREFVAAIRDAGGIRNYADSVKGRFTISRDAAKNMIFLQMNSLKPEDTAVYYCKFLRLPESLAYWGQGTQVTVSS
B26: B2C11 (VHH)
VHH: QVQLQESGGGLVHVGESLTLSCVAPGSIFGVNTMAWYRQAPGKQRELVAAISPGGYTNYAEFVKGRFGISRDKAKNTVYLQMNDLKPEDTAVYYCNYRSGTSRPNTNWGQGTQVTVSS
B27: B0C10 (VHH)
VHH: QVQLQESGGGLVQPGGSLRLSCTASGFTRKHYTIGWFRQAPGKEREGVSCITTPDNSTYYKDSVKGRFTISRDNAKNTVYLQMNNVKPEDTAVYYCGASALGGSSCAQSSSVLHRLFQWGQGTQVTVSS
B28: B0A9 (VHH)
VHH: QVQLQESGGGLVQPGGSLRLTCTSSTSINIYPYMGWYRQAPGKQRERVATVNRDGNTNYLDSVKGRFTITRDDAKKTICLQMNNLEPEDTAVYYCNNFGSSSWGQGTQVTVSS
B29: B0E2 (VHH)
VHH: QVQLQESGGGLVLPGGSLRLSCAASGTVFKIYVMGWYRQAPGKQRELVATISNGGTPNYADSVKGRFTISGDRAKNTVFLQMSSLNVEDTAVYYCNRRQLEGRQSEDYWGQGTQVTVSS

target: T1, TcdA-GTD (TcdA1-542) (Clostridioides difficile strain VPI10463, UniProt P16154 1-542); experiment: ELISA-like screen of clone lysates on isolated domains
T1 construct: range 1-542; also called TcdA glucosyltransferase domain
T1 sequence (P16154 1-542 limits assumed): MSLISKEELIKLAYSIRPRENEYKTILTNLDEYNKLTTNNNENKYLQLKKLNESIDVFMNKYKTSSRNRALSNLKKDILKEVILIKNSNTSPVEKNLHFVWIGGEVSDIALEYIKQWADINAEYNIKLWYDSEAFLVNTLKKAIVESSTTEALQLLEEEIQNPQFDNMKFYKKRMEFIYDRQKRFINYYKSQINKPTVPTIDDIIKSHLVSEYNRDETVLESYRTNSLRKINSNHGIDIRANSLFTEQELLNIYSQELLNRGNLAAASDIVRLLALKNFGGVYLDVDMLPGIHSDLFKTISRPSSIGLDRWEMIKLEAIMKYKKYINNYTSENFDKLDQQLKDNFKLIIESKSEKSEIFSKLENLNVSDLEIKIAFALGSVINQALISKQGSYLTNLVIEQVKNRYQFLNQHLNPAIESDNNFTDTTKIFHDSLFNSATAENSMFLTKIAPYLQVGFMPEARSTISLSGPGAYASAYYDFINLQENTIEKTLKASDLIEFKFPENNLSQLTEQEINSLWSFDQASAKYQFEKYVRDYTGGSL

Binder | binding result
B1 | no binding
B2 | no binding
B3 | no binding
B4 | no binding
B5 | no binding
B6 | no binding
B7 | no binding
B8 | no binding
B9 | no binding
B10 | no binding
B11 | no binding
B12 | no binding
B13 | no binding
B14 | no binding

target: full-length TcdA (TcdA1-2710) (Clostridioides difficile strain VPI10463, UniProt P16154 1-2710); experiment: cell-based or functional assay
Sequence (P16154 whole entry): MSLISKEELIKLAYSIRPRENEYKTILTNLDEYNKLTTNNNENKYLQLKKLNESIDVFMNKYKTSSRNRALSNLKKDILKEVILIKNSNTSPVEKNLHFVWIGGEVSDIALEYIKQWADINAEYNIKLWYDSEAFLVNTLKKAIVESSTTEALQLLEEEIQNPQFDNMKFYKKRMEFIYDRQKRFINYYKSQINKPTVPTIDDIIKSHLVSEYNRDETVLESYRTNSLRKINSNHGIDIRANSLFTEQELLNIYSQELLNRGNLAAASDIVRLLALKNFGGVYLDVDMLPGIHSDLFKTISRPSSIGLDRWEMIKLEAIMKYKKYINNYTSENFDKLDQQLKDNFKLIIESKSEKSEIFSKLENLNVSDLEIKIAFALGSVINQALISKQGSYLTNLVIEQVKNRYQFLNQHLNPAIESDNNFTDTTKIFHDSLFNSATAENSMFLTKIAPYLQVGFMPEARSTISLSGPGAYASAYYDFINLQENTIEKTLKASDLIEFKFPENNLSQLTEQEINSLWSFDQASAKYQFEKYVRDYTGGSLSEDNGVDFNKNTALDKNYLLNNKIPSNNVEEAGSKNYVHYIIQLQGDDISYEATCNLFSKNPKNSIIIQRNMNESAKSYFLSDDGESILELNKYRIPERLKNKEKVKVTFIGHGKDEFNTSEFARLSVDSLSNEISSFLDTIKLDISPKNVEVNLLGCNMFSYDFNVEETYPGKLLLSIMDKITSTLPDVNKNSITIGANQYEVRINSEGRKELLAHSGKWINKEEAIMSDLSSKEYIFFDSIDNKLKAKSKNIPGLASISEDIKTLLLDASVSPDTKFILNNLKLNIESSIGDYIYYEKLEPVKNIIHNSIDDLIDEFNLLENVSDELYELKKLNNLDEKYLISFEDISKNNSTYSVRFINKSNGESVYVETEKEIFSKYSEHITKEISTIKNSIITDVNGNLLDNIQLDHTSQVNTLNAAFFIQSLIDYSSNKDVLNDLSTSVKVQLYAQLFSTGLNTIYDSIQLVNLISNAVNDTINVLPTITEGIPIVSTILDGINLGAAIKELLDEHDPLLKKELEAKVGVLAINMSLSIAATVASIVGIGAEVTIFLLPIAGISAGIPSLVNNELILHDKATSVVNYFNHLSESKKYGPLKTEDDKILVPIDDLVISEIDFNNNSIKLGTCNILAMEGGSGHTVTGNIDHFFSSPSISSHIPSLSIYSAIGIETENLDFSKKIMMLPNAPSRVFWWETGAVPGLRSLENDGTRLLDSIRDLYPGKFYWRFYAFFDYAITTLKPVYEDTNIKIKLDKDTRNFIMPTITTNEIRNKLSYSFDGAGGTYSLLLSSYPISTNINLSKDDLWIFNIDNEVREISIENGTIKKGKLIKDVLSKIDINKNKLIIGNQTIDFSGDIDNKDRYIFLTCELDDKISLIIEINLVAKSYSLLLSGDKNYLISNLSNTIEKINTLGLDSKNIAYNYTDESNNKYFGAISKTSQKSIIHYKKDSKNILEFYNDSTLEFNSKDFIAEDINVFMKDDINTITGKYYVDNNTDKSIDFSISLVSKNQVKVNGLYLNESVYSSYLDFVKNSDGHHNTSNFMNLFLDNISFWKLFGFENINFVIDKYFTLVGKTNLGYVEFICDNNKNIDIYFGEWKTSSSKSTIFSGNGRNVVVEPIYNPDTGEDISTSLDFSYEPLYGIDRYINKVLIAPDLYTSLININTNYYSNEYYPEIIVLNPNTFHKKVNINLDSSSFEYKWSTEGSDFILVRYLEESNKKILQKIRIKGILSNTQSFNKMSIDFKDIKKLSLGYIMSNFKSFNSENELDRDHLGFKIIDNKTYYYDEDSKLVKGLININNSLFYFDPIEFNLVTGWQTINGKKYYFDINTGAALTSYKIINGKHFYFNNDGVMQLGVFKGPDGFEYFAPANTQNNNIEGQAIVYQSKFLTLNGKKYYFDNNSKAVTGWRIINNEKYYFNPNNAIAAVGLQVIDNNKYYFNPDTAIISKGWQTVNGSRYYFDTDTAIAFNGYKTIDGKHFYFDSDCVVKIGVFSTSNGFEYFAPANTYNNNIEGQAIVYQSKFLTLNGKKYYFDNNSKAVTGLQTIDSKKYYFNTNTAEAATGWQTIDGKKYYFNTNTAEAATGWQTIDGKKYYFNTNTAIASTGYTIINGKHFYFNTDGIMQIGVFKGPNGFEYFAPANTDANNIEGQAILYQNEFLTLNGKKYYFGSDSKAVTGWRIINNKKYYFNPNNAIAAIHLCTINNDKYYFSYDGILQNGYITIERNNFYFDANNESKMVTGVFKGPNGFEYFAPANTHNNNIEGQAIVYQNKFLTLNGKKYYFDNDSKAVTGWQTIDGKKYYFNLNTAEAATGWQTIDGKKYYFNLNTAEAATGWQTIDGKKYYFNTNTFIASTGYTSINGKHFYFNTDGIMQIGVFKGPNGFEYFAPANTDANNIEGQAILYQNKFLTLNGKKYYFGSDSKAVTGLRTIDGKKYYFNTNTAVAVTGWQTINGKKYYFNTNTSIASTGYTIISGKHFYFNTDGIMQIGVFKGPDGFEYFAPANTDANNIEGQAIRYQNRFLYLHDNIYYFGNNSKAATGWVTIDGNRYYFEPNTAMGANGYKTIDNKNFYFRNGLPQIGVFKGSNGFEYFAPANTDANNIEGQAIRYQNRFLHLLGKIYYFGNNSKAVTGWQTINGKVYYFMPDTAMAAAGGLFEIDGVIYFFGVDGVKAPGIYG

Binder | EC50 (nM), TcdA neutralization, T84 cells [nM] | EC50 (nM), TcdA neutralization, Vero cells [nM] | EC50, TcdA neutralization, T84 cells [nM]
B1 | 10.4 | < 1 | –
B2 | 2.1 | < 1 | –
B3 | 2.4 | < 1 | –
B4 | 1.1 | < 1 | –
B5 | – | 6.4 | –
B6 | – | 15.7 | –
B7 | 838 | 40.9 | –
B8 | – | 11.1 | –
B9 | 60.3 | 2.5 | –
B10 | 91 | 1 | –
B11 | 105 | 8.7 | –
B12 | 844 | 8.5 | –
B13 | – | – | > 10000
B15 | 455 | – | –
B16 | 678 | – | –
B17 | – | – | > 10000
B18 | – | – | > 10000
B19 | – | – | > 10000

target: full-length TcdB (TcdB1-2366), VPI10463 (Clostridioides difficile strain VPI10463, UniProt P18177 1-2366); experiment: cell-based or functional assay

Binder | EC50 (nM), TcdB neutralization, Vero cells [nM] | EC50 (nM), TcdB neutralization, Caco-2 cells [nM]
B20 | 2.2 | –
B21 | 10 | –
B22 | 176 | 111
B23 | 350 | 161
B24 | < 1 | –
B25 | < 1 | –
B26 | < 1 | –
B27 | 1.3 | < 1
B28 | 12.9 | 1.3
B29 | 28 | < 1
